Results reported in patent US7438916B2, “Therapeutic target for protozoal diseases” (priority 2005, dated 2008).

Legend:
FRAP = biological target: T1, FRAP (Plasmodium falciparum, UniProt Q8IL04); assay: Inhibition of FRAP-mediated hemozoin formation; type: biochemical, P. falciparum; conditions: different concentrations, FIG. 14
T1 construct: The activity requires the complete protein as two truncated variants of FRAP; made in house; host or cells: E. coli BL21
Procedure: FIG. 14. Inhibition of FRAP-mediated hemozoin formation by Chloroquine. Hemozoin formation was investigated in the absence or presence of different concentrations of chloroquine, an antimalarial drug with high affinity for heme.
(§1) The standard assay contained in a total volume of 1.0 ml: 500 mM sodium acetate pH 5.2, 300 nmol/ml hemin-Cl (as substrate) and 500 pmol/ml FRAP, as the source of heme polymerase activity. The amount of FRAP added was chosen such that 50% of the substrate was converted into product (insoluble hemozoin) during the assay. The reaction was initiated by protein addition and allowed to proceed for 16 hours at 37 degree. The reaction was terminated by adding 0.01 ml of 10% SDS solution. The reaction tube was centrifuged at 13,000 rpm for 15 minutes at 23 degrees and the supernatant was carefully removed. The pellet, which contained the polymerized and insoluble hemozoin, was resuspended in 1 ml of 0.1 M sodium bicarbonate pH 9.1 containing 2.5% SDS. […] The pellet obtained after final washing was dissolved in 0.3 ml of 0.1 N NaOH and the absorbance of the solution was measured at 405 nm using a spectrophotometer. Amount of heme polymerized was calculated utilizing a standard curve, prepared by dissolving known amounts of commercially available beta-hematin in 0.1 N NaOH. […]

HepG2 cells [1] = assay: Liver cell binding inhibition assay with glycosaminoglycans; type: cell-based, human; conditions: FIG. 6
Procedure: Liver Cell binding assay: The binding of proteins was assayed on HepG2 cells as described previously (1, 31). Briefly, cells were plated at a density of 25,000 cells/well, in a 96 well plate, 36 hours before the start of the experiment. The cells were fixed with paraformaldehyde, blocked with 1% BSA, followed by the addition of equimolar concentrations of recombinant proteins. Bound protein was detected using anti-polyhistidine tag monoclonal antibody (1:10,000) and anti-mouse antibody conjugated to alkaline phosphatase (1:2000). Amount of bound protein was detected by using 4-methylumbelliferyl phosphate, a fluorescent substrate, and measurement of fluorescence using a fluorescent plate reader (Molecular Devices, CA) with excitation and emission set at 350 nm and 460 nm respectively. Results are shown as mean±standard deviation of mean of a representative experiment performed in triplicate. Binding inhibition assays were performed by combining the recombinant proteins with increasing amounts of glycosaminoglycans and incubating at 37° C. for 15 min. For enzyme treatment, cells were incubated with different concentrations of Heparinase I or Chondroitinase ABC for 90 minutes at 37° C. as previously described (31), before the addition of proteins. The bound protein was assayed as described above. […]

heme = assay: FRAP-mediated hemozoin formation assay; type: biochemical; conditions: result in words
Procedure: FIG. 8. FRAP-mediated neutralization of toxic heme into non-toxic Hemozoin. 500 pmoles of each of the protein was incubated with different concentrations of free heme at 37° C. for 16 hours, under acidic conditions (500 mM Sodium acetate pH 5.2). After 16 hours, free heme was removed by washing and the insoluble pellet representing hemozoin was solubalized in sodium hydroxide and estimated using a spectrophotometer.
as §1, with “degree.” for “degree. The reaction was terminated by adding 0.01 ml of 10% SDS solution. The reaction tube was centrifuged at 13,000 rpm for 15 minutes at 23 degrees and the supernatant was carefully removed. The pellet, which contained the polymerized and insoluble hemozoin, was resuspended in 1 ml of 0.1 M sodium bicarbonate pH 9.1 containing 2.5% SDS.”
Furthermore, the hemozoin formation was also evaluated with truncated variants and point mutants of FRAP to not only describe its structural requirements, but also pin point the residues that are involved in the polymerization process.

[2] = test system: P. falciparum sporozoites; assay: Sporozoite invasion assay; type: cell-based, P. falciparum (strain NF54); conditions: versus culture medium
Procedure: Sporozoite Invasion Assay: Invasion assay was performed with HepG2 (Human hepatoma) cells as previously described (31). Briefly, HepG2 cells were plated (50,000 cells/0.3 ml) and incubated overnight at 37° C. in a CO2 incubator. Next day, medium was removed and 50 μl of diluted FRAP proteins (final concentrations: 20 and 10 μg/ml) or anti-FRAP2 antibodies (40 μg/ml final concentration) were added per well. Anti CS monoclonal antibody NFS1 was used at a final concentration of 100 μg/ml. All protein concentrations and serum dilutions were evaluated in triplicate. This was immediately followed by the addition of 20,000 sporozoites in 50 μl of medium to each well. P. falciparum (strain NF54) sporozoites were obtained from the salivary glands of An. stephensi mosquitoes as described by Ozaki (33). The sporozoites were allowed to invade liver cells for three hours followed by the washing of cells with PBS at pH 7.4. Subsequently, the cells were fixed with cold methanol. Sporozoites were visualized by immunostaining using NFS1 as primary antibody and anti-mouse IgG-peroxidase conjugate. The slides were mounted with Paramount and only intracellular sporozoites were counted as described (31). Percentage inhibition of invasion was calculated with the following formula: [(Control-test)/control]×100 Results

HepG2 cells [3] = assay: Liver cell binding assay; type: cell-based, human; conditions: FIG. 5
Procedure: (§2) Liver Cell binding assay: The binding of proteins was assayed on HepG2 cells as described previously (1, 31). Briefly, cells were plated at a density of 25,000 cells/well, in a 96 well plate, 36 hours before the start of the experiment. The cells were fixed with paraformaldehyde, blocked with 1% BSA, followed by the addition of equimolar concentrations of recombinant proteins. Bound protein was detected using anti-polyhistidine tag monoclonal antibody (1:10,000) and anti-mouse antibody conjugated to alkaline phosphatase (1:2000). Amount of bound protein was detected by using 4-methylumbelliferyl phosphate, a fluorescent substrate, and measurement of fluorescence using a fluorescent plate reader (Molecular Devices, CA) with excitation and emission set at 350 nm and 460 nm respectively. Results are shown as mean±standard deviation of mean of a representative experiment performed in triplicate. Binding inhibition assays were performed by combining the recombinant proteins with increasing amounts of glycosaminoglycans and incubating at 37° C. for 15 min. For enzyme treatment, cells were incubated with different concentrations of Heparinase I or Chondroitinase ABC for 90 minutes at 37° C. as previously described (31), before the addition of proteins. The bound protein was assayed as described above.
Therefore, binding activity was probed using a polyhistidine tag monoclonal antibody. […]

HepG2 cells [4] = assay: Binding to liver cells pretreated with glycosaminoglycan cleaving enzyme; type: cell-based, human; conditions: for Inhibition of Binding (%): 100 nM protein
Procedure: as §2
The involvement of HSPG as a receptor was further verified by evaluating the binding of the protein on liver cells that were pretreated with specific glycosaminoglycan-cleaving enzymes. Cells were pre-treated with heparinase I or chondroitinase ABC followed by the evaluation of binding activity of FRAP and FRAP2. Heparinase I selectively removes heparan sulfate while chondroitinase ABC cleaves chondroitin sulfate A, B and C type sugars from the liver cell surface. Both, FRAP and FRAP2 lost 50% of their binding activity on heparinase I treated cells (Table 4) confirming the involvement of a heparin-based receptor on the liver cell surface.

T1 sequence (Q8IL04 whole entry, the tested form may be a part): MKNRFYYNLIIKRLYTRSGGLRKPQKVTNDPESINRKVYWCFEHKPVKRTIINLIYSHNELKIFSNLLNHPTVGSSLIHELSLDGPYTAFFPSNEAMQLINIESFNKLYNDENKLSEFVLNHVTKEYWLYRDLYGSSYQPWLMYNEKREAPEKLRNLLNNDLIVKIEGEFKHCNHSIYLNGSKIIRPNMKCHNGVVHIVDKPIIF

## CCN(CC)CCCC(C)Nc1ccnc2cc(Cl)ccc12 (centres unmarked) [Chloroquine, chloroquine]
FRAP
  inhibition of FRAP-mediated hemozoin formation: inhibited heme polymerization in a dose dependent manner
FRAP; listed as chloroquine
  inhibition of FRAP-mediated hemozoin formation: effectively inhibited

## chondroitin sulfate A [reference compound]
HepG2 cells [1]; highest concentration evaluated
  inhibition of FRAP and FRAP2 binding to liver cells by the glycosaminoglycan: no inhibition

B1: FRAP from rodent malaria parasite P. yoelii: P. yoelii FRAP ortholog, SEQ ID NO: 9 (protein, listed as Plasmodium yoelii)
chain: MKKKLYNLVLKRSYTRSGGLRKPQKVTNDPESINRKVYWCFEHKPVRRTVINLIFSHNELKNFSTLLRNTNASSSLIHELSLEGPYTGFLPSDEALNLLSTNSLNKLYKDDNKMSEFVLNHFTKGLWMYRDLYGSSYQPWLMYNEKREAPEKIQTLVNNDIIVKIEGEFKNCDHSIYLNEAKIIRPNMKCHNGIIHIIDKPIIF
heme
  hemozoin formation (heme polymerization) activity: demonstrated

B2: FRAP2: truncated FRAP containing only amino acids 1-87, SEQ ID NO: 25 (protein, listed as Plasmodium falciparum)
chain: MKNRFYYNLIIKRLYTRSGGLRKPQKVTNDPESINRKVYWCFEHKPVKRTIINLIYSHNELKIFSNLLNHPTVGSSLIHELSLDGPY
heme
  hemozoin formation (heme polymerization) activity: did not show any hemozoin formation
[2]; 10 μg/ml
  % Inhibition of invasion of HepG2 cells by P. falciparum sporozoites: 88.1 ± 4.6%
[2]; 20 μg/ml
  % Inhibition of invasion of HepG2 cells by P. falciparum sporozoites: 92.4%
HepG2 cells [1]; HepG2 cells
  reduction of binding activity in the presence of free heparin: 60%
HepG2 cells [3]
  loss of binding activity in comparison to the full length protein: 50%
HepG2 cells [3]; five concentrations of recombinant protein
  binding on liver cells: only half the strength
HepG2 cells [4]; cells pretreated with Heparinase I 1.25 U/ml for 90 minutes
  Inhibition of Binding (%): 42.3 ± 10.4%
HepG2 cells [4]; cells pretreated with Heparinase I 2.50 U/ml for 90 minutes
  Inhibition of Binding (%): 41.4 ± 1.5%
HepG2 cells [4]; cells pretreated with Heparinase I 5.00 U/ml for 90 minutes
  Inhibition of Binding (%): 49.4 ± 9.2%
HepG2 cells [4]; text summary of Table 4
  loss of binding activity on heparinase I treated cells: 50%
